Earlier results as cited in article PMC12384152.
pKd: −log10 of the molar value.

Target: β-spectrin repeats 14-15 (Homo sapiens) (UniProt P11277)
Sequence of UniProt P11277 (P11277 1691-1907): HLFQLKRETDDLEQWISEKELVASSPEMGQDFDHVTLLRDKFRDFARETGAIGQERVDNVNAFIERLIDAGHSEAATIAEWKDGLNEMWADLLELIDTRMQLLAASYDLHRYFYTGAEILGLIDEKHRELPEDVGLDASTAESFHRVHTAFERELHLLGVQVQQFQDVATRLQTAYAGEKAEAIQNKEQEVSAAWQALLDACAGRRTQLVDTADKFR

Substance: ankyrin-1 ZU5 (from UniProt P16157)
- pKd: 7.82
